From US20240247080A1, “GLP1/GIP/NPY2 RECEPTOR TRIPLE AGONISTS” (Boehringer Ingelheim International GmbH, priority 2022, published 2024) come the findings set out here.

What all share (assay): cell-based or functional assay
One assay addresses T1, human GIP receptor (human, UniProt P48546 22-466).
T1 sequence (looked up): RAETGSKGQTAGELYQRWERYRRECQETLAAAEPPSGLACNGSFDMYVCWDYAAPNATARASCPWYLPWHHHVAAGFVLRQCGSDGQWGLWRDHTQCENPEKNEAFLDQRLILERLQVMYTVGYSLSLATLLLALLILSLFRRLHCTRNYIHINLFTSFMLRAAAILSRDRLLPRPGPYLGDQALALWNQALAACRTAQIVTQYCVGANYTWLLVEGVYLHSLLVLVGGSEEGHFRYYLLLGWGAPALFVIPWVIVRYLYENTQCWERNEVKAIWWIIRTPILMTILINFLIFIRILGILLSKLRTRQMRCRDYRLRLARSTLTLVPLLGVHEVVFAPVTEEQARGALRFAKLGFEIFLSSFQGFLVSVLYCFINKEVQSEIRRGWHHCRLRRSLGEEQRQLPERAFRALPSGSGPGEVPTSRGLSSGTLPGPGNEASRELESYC

Assay [1] addresses T2, human neuropeptide Y2 receptor (human, UniProt P49146 1-381).
T2 sequence (looked up): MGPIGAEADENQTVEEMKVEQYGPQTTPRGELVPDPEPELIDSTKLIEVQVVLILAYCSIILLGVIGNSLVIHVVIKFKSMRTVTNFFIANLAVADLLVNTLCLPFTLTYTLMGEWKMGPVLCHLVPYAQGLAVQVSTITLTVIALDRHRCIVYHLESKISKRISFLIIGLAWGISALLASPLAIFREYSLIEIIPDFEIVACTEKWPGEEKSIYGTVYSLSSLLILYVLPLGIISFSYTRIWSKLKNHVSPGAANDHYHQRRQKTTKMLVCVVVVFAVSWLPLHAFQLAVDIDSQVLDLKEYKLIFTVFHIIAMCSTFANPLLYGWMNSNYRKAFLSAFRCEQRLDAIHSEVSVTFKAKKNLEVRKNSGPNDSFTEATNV

A further assay deals with human GLP-1 receptor (human, UniProt P43220 24-463).

B1: Compound 129 (peptide)
peptide: YXEGTFTSDYSIXLEKQAQXAFVEWLIKGGPSSGASLXHYYNWLTRQRY
modifications: Aib at 2, 13, 20, 38; K28 side chain: C20DA-gGlu-gGlu-gGlu-gGlu-gGlu-gGlu-eLys; C-terminal NH2
As for B1, in the assay with human GIP receptor, the “EC50 CreLuc hGIPR 0.5% hP” value is 0.06 nM and the “EC50 CreLuc hGIPR 100% hP” value was 0.5 nM. Further, in assay [1], the “EC50 CreLuc hNPY2R 0.5% hP” value worked out at 30.9 nM and the “EC50 CreLuc hNPY2R 100% hP” value was 87.6 nM. Also, in the assay with human GLP-1 receptor, the “EC50 CreLuc hGLP1R 0.5% hP” value was 0.04 nM and the “EC50 CreLuc hGLP1R 100% hP” value is 0.85 nM.

B2: Compound 142 (peptide)
peptide: YXEGTFTSDYSIXLEKQAQXAFVQWLIKGGPSEPASLRHYYNWLTRQRY
modifications: Aib at 2, 13, 20; K28 side chain: C18DA-gGlu-gGlu-gGlu-gGlu-gGlu-OEG-OEG; C-terminal NH2
Consider B2, for which, in the assay with human GIP receptor, the “EC50 CreLuc hGIPR 0.5% hP” value is 0.28 nM and the “EC50 CreLuc hGIPR 100% hP” value was 1.15 nM. In assay [1], the “EC50 CreLuc hNPY2R 0.5% hP” value amounted to 12.9 nM and the “EC50 CreLuc hNPY2R 100% hP” value came out at 28.2 nM. Further, in the assay with human GLP-1 receptor, the “EC50 CreLuc hGLP1R 0.5% hP” value amounted to 0.12 nM and the “EC50 CreLuc hGLP1R 100% hP” value turned out to be 3.34 nM.

B3: Compound 133 (peptide)
peptide: YXEGTFTSDYSIXLEKQAQXAFVEWLIKGGPSSGASLRHYXNWLTRQRY
modifications: Aib at 2, 13, 20; Tle at 41; K28 side chain: C20DA-gGlu-gGlu-gGlu-gGlu-gGlu-gGlu-eLys; C-terminal NH2
With B3, in the assay with human GIP receptor, the “EC50 CreLuc hGIPR 0.5% hP” value was determined as 0.48 nM and the “EC50 CreLuc hGIPR 100% hP” value is 2.28 nM. For the same molecule, in assay [1], the “EC50 CreLuc hNPY2R 0.5% hP” value was determined as 14.1 nM and the “EC50 CreLuc hNPY2R 100% hP” value worked out at 41.4 nM. Further, in the assay with human GLP-1 receptor, the “EC50 CreLuc hGLP1R 0.5% hP” value is 0.16 nM and the “EC50 CreLuc hGLP1R 100% hP” value was found to be 3.01 nM.

B4: Compound 132 (peptide)
peptide: YXEGTFTSDYSIXLEKQAQXAFVEWLIKGGPSSGASIRHYYNWLTRQRY
modifications: Aib at 2, 13, 20; K28 side chain: C20DA-gGlu-gGlu-gGlu-gGlu-gGlu-gGlu-eLys; C-terminal NH2
For the molecule B4, in the assay with human GIP receptor, the “EC50 CreLuc hGIPR 0.5% hP” value came to 0.22 nM and the “EC50 CreLuc hGIPR 100% hP” value was found to be 2.07 nM. Besides, in assay [1], the “EC50 CreLuc hNPY2R 0.5% hP” value was found to be 11.3 nM and the “EC50 CreLuc hNPY2R 100% hP” value was 45.4 nM. Further, in the assay with human GLP-1 receptor, the “EC50 CreLuc hGLP1R 0.5% hP” value amounted to 0.14 nM and the “EC50 CreLuc hGLP1R 100% hP” value worked out at 3.76 nM.

B5: Compound 136 (peptide)
peptide: YXEGTFTSDYSIXLEKAAQXAFVEWLIKGGPSSGASLRHYYNWLTRQRY
modifications: Aib at 2, 13, 20; K28 side chain: C20DA-gGlu-gGlu-gGlu-gGlu-gGlu-gGlu-eLys; C-terminal NH2
On to B5, for which, in the assay with human GIP receptor, the “EC50 CreLuc hGIPR 0.5% hP” value was 0.31 nM and the “EC50 CreLuc hGIPR 100% hP” value was 2.03 nM. For the same molecule, in assay [1], the “EC50 CreLuc hNPY2R 0.5% hP” value was determined as 15.1 nM and the “EC50 CreLuc hNPY2R 100% hP” value was found to be 64.7 nM. In the assay with human GLP-1 receptor, the “EC50 CreLuc hGLP1R 0.5% hP” value was found to be 0.32 nM and the “EC50 CreLuc hGLP1R 100% hP” value is 4.19 nM.

B6: Compound 137 (peptide)
peptide: YXEGTFTSDYSIXLEKQAQXAFVEWLIKGGPSSGASLRHYYNWXTRQRY
modifications: Aib at 2, 13, 20; Tle at 44; K28 side chain: C20DA-gGlu-gGlu-gGlu-gGlu-gGlu-gGlu-eLys; C-terminal NH2
Turning to B6, in the assay with human GIP receptor, the “EC50 CreLuc hGIPR 0.5% hP” value worked out at 0.28 nM and the “EC50 CreLuc hGIPR 100% hP” value was found to be 1.5 nM. For the same molecule, in assay [1], the “EC50 CreLuc hNPY2R 0.5% hP” value turned out to be 60.2 nM and the “EC50 CreLuc hNPY2R 100% hP” value was found to be 93 nM. In addition, in the assay with human GLP-1 receptor, the “EC50 CreLuc hGLP1R 0.5% hP” value was found to be 0.12 nM and the “EC50 CreLuc hGLP1R 100% hP” value was determined as 2.22 nM.

B7: Compound 140 (peptide)
peptide: YXEGTFTSDYSIXLEKQAQXAFVEWLIKGGPSSPASLRHYYNWLTRQRY
modifications: Aib at 2, 13, 20; K28 side chain: C18DA-gGlu-gGlu-gGlu-gGlu-gGlu-OEG-OEG; C-terminal NH2
On to B7, for which, in the assay with human GIP receptor, the “EC50 CreLuc hGIPR 0.5% hP” value was determined as 0.22 nM and the “EC50 CreLuc hGIPR 100% hP” value amounted to 1.2 nM. In addition, in assay [1], the “EC50 CreLuc hNPY2R 0.5% hP” value was 12.4 nM and the “EC50 CreLuc hNPY2R 100% hP” value was found to be 45.9 nM. Besides, in the assay with human GLP-1 receptor, the “EC50 CreLuc hGLP1R 0.5% hP” value was 0.12 nM and the “EC50 CreLuc hGLP1R 100% hP” value came to 3.11 nM.

B8: Compound 131 (peptide)
peptide: YXEGTFTSDYSIXLERQAQXAFVEWLIKGGPSSGASLRHYYNWLTRQRY
modifications: Aib at 2, 13, 20; K28 side chain: C20DA-gGlu-gGlu-gGlu-gGlu-gGlu-gGlu-eLys; C-terminal NH2
For the molecule B8, in the assay with human GIP receptor, the “EC50 CreLuc hGIPR 0.5% hP” value is 0.35 nM and the “EC50 CreLuc hGIPR 100% hP” value was found to be 2.94 nM. Also, in assay [1], the “EC50 CreLuc hNPY2R 0.5% hP” value came out at 18.2 nM and the “EC50 CreLuc hNPY2R 100% hP” value turned out to be 71.5 nM. In addition, in the assay with human GLP-1 receptor, the “EC50 CreLuc hGLP1R 0.5% hP” value stood at 0.11 nM and the “EC50 CreLuc hGLP1R 100% hP” value amounted to 2.84 nM.

B9: Compound 134 (peptide)
peptide: YXEGTFTSDYSIXLEKQAQXAFVEWLIKGGPSEGQSIRHYYNWLTRQRY
modifications: Aib at 2, 13, 20; K28 side chain: C20DA-gGlu-gGlu-gGlu-gGlu-gGlu-gGlu-eLys; C-terminal NH2
As for B9, in the assay with human GIP receptor, the “EC50 CreLuc hGIPR 0.5% hP” value was determined as 0.09 nM and the “EC50 CreLuc hGIPR 100% hP” value worked out at 0.83 nM. In assay [1], the “EC50 CreLuc hNPY2R 0.5% hP” value was 10.1 nM and the “EC50 CreLuc hNPY2R 100% hP” value stood at 40 nM. In the assay with human GLP-1 receptor, the “EC50 CreLuc hGLP1R 0.5% hP” value came out at 0.1 nM and the “EC50 CreLuc hGLP1R 100% hP” value came to 3.94 nM.
